Measurements from article PMC5512444 (Structure (London, England : 1993), 2017).
Like-named read-outs stand apart in the source and are kept apart here.

Experiments:
[1] = molecular target: Ube2g2 (Homo sapiens) (UniProt P60604); conditions: cited from earlier work
[2] = molecular target: Ube2g2 (Homo sapiens) (UniProt P60604); conditions: cited from earlier work; remark: listed apart in the source
[3] = molecular target: Ube2g2 (Homo sapiens) (UniProt P60604); conditions: cited from earlier work; remark: listed apart in the source
[4] = molecular target: Ube2g2 (Homo sapiens) (UniProt P60604); conditions: cited from earlier work; remark: listed apart in the source
[5] = molecular target: T1, Y103G-Ube2g2 (human, UniProt P60604 1-165, Y103G); experiment: ITC
T1 sequence: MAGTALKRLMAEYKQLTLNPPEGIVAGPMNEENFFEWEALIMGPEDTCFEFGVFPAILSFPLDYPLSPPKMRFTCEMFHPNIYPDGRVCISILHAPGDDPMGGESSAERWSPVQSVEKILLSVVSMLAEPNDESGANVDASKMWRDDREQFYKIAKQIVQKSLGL

[6] = molecular target: T2, Ube2g2 (wild type) (human, UniProt P60604 1-165); experiment: NMR 15N heteronuclear NOE of the complex compared with the free protein
T2 sequence: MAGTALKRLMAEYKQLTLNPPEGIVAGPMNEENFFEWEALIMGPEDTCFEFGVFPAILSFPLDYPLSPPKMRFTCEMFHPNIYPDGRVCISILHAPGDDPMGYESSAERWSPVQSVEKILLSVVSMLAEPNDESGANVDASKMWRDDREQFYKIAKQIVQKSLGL

[7] = molecular target: T3, C89K-Ube2g2 (human, UniProt P60604 1-165, C89K); experiment: NMR 15N CPMG relaxation dispersion of the complex compared with the free protein
T3 sequence: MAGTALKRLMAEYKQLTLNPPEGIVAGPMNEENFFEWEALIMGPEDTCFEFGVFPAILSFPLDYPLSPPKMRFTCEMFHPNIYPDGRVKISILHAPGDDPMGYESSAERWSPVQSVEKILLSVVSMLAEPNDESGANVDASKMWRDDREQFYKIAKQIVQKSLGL

In the case of gp78 G2BR (from UniProt Q9UKV5), the Kd [1] is given as 21 nM.

In the case of gp78 RING-G2BR (from UniProt Q9UKV5), the Kd [2] is given as 38 nM.

In the case of gp78 RING (from UniProt Q9UKV5), the Kd [3] is listed as 144000 nM and the Kd [4] is listed as 3000 nM.

With WSADERQRMLVQRKDELLQQARKRFLNK [G2BR peptide of gp78 (Ube2g2 binding region)] the Kd [5] was 59 ± 6 nM, the dH [5] was -39.5 ± 0.4 kcal/mol and the “stoichiometry N” value [5] was 0.95. WSADERQRMLVQRKDELLQQARKRFLNK [G2BR peptide of gp78 (Ube2g2 binding region)]: binds [6].

B1: RING-G2BR fusion protein of gp78 (domain or fragment, human)
chain: KNYLRVVGNMEARFAVATPEELAVNNDDCAICWDSMQAARKLPCGHLFHNSCLRSWLEQDTSCPTCRMSLNIADNNRVREEGGGGGGGSSGSSGGSGGGSGSSSGGGGGSGGGSGGGGGGGADERQRMLVQRKDELLQQARKRFLNK
B1: binds [7].
